Key:
Test in all cases: holdup assay
Design in all cases: key: below the threshold = too weak to quantify, mostly under pKd 3.1 to 4
Details in all cases: plain residues with an end cap or a label only (N-terminal biotin on a linker: ado-ado)
APBA2_2, Q99767 = target: T1, APBA2_2, Q99767
T1 sequence (Q99767 654-744, limits assumed, looked up): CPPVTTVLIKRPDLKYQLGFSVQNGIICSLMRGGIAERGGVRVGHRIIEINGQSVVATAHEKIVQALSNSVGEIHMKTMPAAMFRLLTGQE

PTPN13_1, Q12923 = target: T2, PTPN13_1, Q12923
T2 sequence (Q12923 1088-1188, limits assumed, looked up): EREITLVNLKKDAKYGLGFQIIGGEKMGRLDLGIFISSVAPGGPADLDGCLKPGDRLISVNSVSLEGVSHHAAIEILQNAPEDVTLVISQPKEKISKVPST

PARD3_3, Q8TEW0 = target: PARD3_3, Q8TEW0
PARD3B_1, Q8TEW8 = target: T3, PARD3B_1, Q8TEW8
T3 sequence (Q8TEW8 196-299, limits assumed, looked up): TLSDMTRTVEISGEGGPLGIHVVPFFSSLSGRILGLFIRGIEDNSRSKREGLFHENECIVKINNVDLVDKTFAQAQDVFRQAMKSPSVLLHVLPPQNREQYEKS

NHERF3_1, Q5T2W1 = target: T4, NHERF3_1, Q5T2W1
T4 sequence (Q5T2W1 4-100, limits assumed, looked up): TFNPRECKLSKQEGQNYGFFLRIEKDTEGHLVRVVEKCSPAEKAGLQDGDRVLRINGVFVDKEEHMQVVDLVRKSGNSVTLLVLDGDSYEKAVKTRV

HTRA2, O43464 = target: HTRA2, O43464
MPDZ_10, O75970 = target: T5, MPDZ_10, O75970
T5 sequence (O75970 1624-1722, limits assumed, looked up): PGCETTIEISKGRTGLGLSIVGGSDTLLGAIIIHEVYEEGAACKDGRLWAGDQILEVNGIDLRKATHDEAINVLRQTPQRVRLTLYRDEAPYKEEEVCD

DFNB31_1, Q9P202 = target: T6, DFNB31_1, Q9P202
T6 sequence (Q9P202 135-233, limits assumed, looked up): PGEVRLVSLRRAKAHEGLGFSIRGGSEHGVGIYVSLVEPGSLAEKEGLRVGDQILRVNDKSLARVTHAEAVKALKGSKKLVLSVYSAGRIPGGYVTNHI

APBA2_1, Q99767 = target: T7, APBA2_1, Q99767
T7 sequence (Q99767 563-664, limits assumed, looked up): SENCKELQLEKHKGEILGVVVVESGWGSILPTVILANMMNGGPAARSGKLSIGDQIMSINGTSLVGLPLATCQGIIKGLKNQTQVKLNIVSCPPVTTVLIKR

SNTG2, Q9NY99 = target: T8, SNTG2, Q9NY99
T8 sequence (Q9NY99 68-166, limits assumed, looked up): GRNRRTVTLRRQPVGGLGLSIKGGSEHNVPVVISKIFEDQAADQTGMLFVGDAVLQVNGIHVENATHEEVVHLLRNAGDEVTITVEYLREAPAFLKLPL

LAP2, Q96RT1 = target: LAP2, Q96RT1
PDZRN3_1, Q9UPQ7 = target: T9, PDZRN3_1, Q9UPQ7
T9 sequence (Q9UPQ7 244-349, limits assumed, looked up): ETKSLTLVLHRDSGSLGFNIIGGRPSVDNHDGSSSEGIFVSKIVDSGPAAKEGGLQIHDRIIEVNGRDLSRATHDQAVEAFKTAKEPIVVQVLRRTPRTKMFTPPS

GRIP2_4, Q9C0E4 = target: GRIP2_4, Q9C0E4
GRIP2_6, Q9C0E4 = target: GRIP2_6, Q9C0E4
LNX1_1, Q8TBB1 = target: LNX1_1, Q8TBB1
GRIP1_2, Q9Y3R0 = target: T10, GRIP1_2, Q9Y3R0
T10 sequence (Q9Y3R0 145-248, limits assumed, looked up): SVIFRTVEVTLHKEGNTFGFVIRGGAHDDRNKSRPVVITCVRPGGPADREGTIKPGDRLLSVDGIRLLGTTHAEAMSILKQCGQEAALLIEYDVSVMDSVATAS

GRIP2_5, Q9C0E4 = target: GRIP2_5, Q9C0E4
FRMPD3, Q5JV73 = target: FRMPD3, Q5JV73
DLG4_1, P78352 = target: DLG4_1, P78352
MAGI1_1, Q96QZ7 = target: MAGI1_1, Q96QZ7
GRIP2_3, Q9C0E4 = target: GRIP2_3, Q9C0E4
GORASP1, Q9BQQ3 = target: GORASP1, Q9BQQ3
NHERF2_2, Q15599 = target: NHERF2_2, Q15599
LNX1_2, Q8TBB1 = target: LNX1_2, Q8TBB1
TIAM2, Q8IVF5 = target: T11, TIAM2, Q8IVF5
T11 sequence (Q8IVF5 885-986, limits assumed, looked up): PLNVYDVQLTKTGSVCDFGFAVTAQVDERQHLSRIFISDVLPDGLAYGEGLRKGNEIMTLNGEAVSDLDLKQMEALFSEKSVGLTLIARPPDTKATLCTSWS

Inadl_2, Q8NI35 = target: Inadl_2, Q8NI35
FRMPD2_3, Q68DX3 = target: FRMPD2_3, Q68DX3
Chain of FRMPD2_3, Q68DX3 (Q68DX3 1073-1166): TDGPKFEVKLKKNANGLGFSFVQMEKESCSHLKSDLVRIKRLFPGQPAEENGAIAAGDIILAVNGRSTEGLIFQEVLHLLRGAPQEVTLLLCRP

Chain of GORASP1, Q9BQQ3 (Q9BQQ3 1-208): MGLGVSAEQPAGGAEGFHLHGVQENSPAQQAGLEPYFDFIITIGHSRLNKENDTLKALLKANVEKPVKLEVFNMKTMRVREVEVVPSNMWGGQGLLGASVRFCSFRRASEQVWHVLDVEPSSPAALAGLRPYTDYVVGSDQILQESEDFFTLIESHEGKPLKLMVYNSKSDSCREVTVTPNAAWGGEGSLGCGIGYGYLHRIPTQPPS
Chain of MAGI1_1, Q96QZ7 (Q96QZ7 1-106): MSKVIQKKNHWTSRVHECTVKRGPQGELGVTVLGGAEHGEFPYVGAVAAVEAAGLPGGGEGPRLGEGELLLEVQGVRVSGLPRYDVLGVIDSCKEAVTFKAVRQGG
Chain of LAP2, Q96RT1 (Q96RT1 other isoform, or with tags, fused parts or gaps): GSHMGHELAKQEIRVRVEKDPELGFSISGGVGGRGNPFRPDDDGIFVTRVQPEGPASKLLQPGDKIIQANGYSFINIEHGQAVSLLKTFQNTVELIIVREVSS
Chain of HTRA2, O43464 (O43464 355-458): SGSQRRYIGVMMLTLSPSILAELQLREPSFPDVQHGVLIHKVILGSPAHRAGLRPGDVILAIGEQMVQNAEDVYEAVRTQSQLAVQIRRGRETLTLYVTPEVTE
Chain of FRMPD3, Q5JV73 (Q5JV73 12-100): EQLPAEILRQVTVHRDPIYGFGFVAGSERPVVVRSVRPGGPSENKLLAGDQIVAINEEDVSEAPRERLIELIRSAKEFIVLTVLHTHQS
Chain of GRIP2_3, Q9C0E4 (Q9C0E4 238-339): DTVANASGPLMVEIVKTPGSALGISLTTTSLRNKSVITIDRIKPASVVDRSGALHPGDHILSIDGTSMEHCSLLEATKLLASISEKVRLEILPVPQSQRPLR
Chain of LNX1_2, Q8TBB1 (Q8TBB1 371-470): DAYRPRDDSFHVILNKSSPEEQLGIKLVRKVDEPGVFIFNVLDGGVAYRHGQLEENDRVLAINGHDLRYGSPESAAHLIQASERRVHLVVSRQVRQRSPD
Chain of GRIP2_4, Q9C0E4 (Q9C0E4 446-548): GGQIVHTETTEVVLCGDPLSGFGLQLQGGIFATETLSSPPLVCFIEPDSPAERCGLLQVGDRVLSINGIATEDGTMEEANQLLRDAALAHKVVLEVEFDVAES
Chain of GRIP2_6, Q9C0E4 (Q9C0E4 648-740): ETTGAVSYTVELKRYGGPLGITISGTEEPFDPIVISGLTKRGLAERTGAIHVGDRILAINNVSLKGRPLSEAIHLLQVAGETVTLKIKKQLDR
Chain of PARD3_3, Q8TEW0 (Q8TEW0 582-685): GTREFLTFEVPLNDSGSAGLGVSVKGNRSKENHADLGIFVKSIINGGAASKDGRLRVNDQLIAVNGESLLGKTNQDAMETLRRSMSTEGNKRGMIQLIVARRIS
Chain of NHERF2_2, Q15599 (Q15599 142-238): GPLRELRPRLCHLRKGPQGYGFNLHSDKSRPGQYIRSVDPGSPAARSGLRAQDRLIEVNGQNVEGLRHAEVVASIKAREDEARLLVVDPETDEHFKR
Chain of GRIP2_5, Q9C0E4 (Q9C0E4 544-642): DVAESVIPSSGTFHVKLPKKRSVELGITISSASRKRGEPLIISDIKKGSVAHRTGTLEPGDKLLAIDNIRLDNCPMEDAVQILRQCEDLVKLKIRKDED
Chain of DLG4_1, P78352 (P78352 62-152): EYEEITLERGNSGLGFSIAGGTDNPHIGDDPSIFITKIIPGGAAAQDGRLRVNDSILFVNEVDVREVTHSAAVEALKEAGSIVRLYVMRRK
Chain of LNX1_1, Q8TBB1 (Q8TBB1 261-371): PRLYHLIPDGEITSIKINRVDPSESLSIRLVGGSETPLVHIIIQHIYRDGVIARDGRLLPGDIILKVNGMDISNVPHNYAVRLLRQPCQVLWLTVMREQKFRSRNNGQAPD
Chain of Inadl_2, Q8NI35 (Q8NI35 238-335): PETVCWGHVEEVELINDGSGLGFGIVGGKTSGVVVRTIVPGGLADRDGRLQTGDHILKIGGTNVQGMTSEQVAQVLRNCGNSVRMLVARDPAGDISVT

Binder: PALKNGQYWV [CSPG4, Q6UVK1]
- pKd (APBA2_2, Q99767): below the threshold
- pKd (PTPN13_1, Q12923): below the threshold
- pKd (PARD3_3, Q8TEW0): 3.96
- pKd (PARD3B_1, Q8TEW8): 3.71
- pKd (NHERF3_1, Q5T2W1): below the threshold
- pKd (HTRA2, O43464): 4.72
- pKd (MPDZ_10, O75970): below the threshold
- pKd (DFNB31_1, Q9P202): below the threshold
- pKd (APBA2_1, Q99767): below the threshold
- pKd (SNTG2, Q9NY99): below the threshold
- pKd (LAP2, Q96RT1): 3.75
- pKd (PDZRN3_1, Q9UPQ7): below the threshold
- pKd (GRIP2_4, Q9C0E4): below the threshold
- pKd (GRIP2_6, Q9C0E4): 3.58
- pKd (LNX1_1, Q8TBB1): below the threshold
- pKd (GRIP1_2, Q9Y3R0): below the threshold
- pKd (GRIP2_5, Q9C0E4): below the threshold
- pKd (FRMPD3, Q5JV73): below the threshold
- pKd (DLG4_1, P78352): below the threshold
- pKd (MAGI1_1, Q96QZ7): below the threshold
- pKd (GRIP2_3, Q9C0E4): below the threshold
- pKd (GORASP1, Q9BQQ3): 5.29
- pKd (NHERF2_2, Q15599): below the threshold
- pKd (LNX1_2, Q8TBB1): 4.27
- pKd (TIAM2, Q8IVF5): 4.83
- pKd (Inadl_2, Q8NI35): 4.38
- pKd (FRMPD2_3, Q68DX3): below the threshold

Binder: FLVTEFNVML [DFNB31, Q9P202]
- pKd (APBA2_2, Q99767): below the threshold
- pKd (PTPN13_1, Q12923): below the threshold
- pKd (PARD3_3, Q8TEW0): 4.49
- pKd (PARD3B_1, Q8TEW8): 5.21
- pKd (NHERF3_1, Q5T2W1): 4.88
- pKd (HTRA2, O43464): below the threshold
- pKd (MPDZ_10, O75970): below the threshold
- pKd (DFNB31_1, Q9P202): below the threshold
- pKd (APBA2_1, Q99767): below the threshold
- pKd (SNTG2, Q9NY99): below the threshold
- pKd (LAP2, Q96RT1): below the threshold
- pKd (PDZRN3_1, Q9UPQ7): below the threshold
- pKd (GRIP2_4, Q9C0E4): below the threshold
- pKd (GRIP2_6, Q9C0E4): 4.06
- pKd (LNX1_1, Q8TBB1): below the threshold
- pKd (GRIP1_2, Q9Y3R0): below the threshold
- pKd (GRIP2_5, Q9C0E4): below the threshold
- pKd (FRMPD3, Q5JV73): 3.97
- pKd (DLG4_1, P78352): below the threshold
- pKd (MAGI1_1, Q96QZ7): below the threshold
- pKd (GRIP2_3, Q9C0E4): below the threshold
- pKd (GORASP1, Q9BQQ3): 4.32
- pKd (NHERF2_2, Q15599): 4.04
- pKd (LNX1_2, Q8TBB1): below the threshold
- pKd (TIAM2, Q8IVF5): 3.59
- pKd (Inadl_2, Q8NI35): below the threshold
- pKd (FRMPD2_3, Q68DX3): below the threshold

Binder: AHGSTRDQSI [KCNB1, Q14721]
- pKd (APBA2_2, Q99767): below the threshold
- pKd (PTPN13_1, Q12923): below the threshold
- pKd (PARD3_3, Q8TEW0): below the threshold
- pKd (PARD3B_1, Q8TEW8): below the threshold
- pKd (NHERF3_1, Q5T2W1): below the threshold
- pKd (HTRA2, O43464): below the threshold
- pKd (MPDZ_10, O75970): below the threshold
- pKd (DFNB31_1, Q9P202): below the threshold
- pKd (APBA2_1, Q99767): below the threshold
- pKd (SNTG2, Q9NY99): below the threshold
- pKd (LAP2, Q96RT1): below the threshold
- pKd (PDZRN3_1, Q9UPQ7): below the threshold
- pKd (GRIP2_4, Q9C0E4): 3.68
- pKd (GRIP2_6, Q9C0E4): below the threshold
- pKd (LNX1_1, Q8TBB1): below the threshold
- pKd (GRIP1_2, Q9Y3R0): below the threshold
- pKd (GRIP2_5, Q9C0E4): below the threshold
- pKd (FRMPD3, Q5JV73): below the threshold
- pKd (DLG4_1, P78352): below the threshold
- pKd (MAGI1_1, Q96QZ7): below the threshold
- pKd (GRIP2_3, Q9C0E4): below the threshold
- pKd (GORASP1, Q9BQQ3): below the threshold
- pKd (NHERF2_2, Q15599): below the threshold
- pKd (LNX1_2, Q8TBB1): below the threshold
- pKd (TIAM2, Q8IVF5): 4.05
- pKd (Inadl_2, Q8NI35): below the threshold
- pKd (FRMPD2_3, Q68DX3): below the threshold

— publication PMC9482650, “Quantitative fragmentomics allow affinity mapping of interactomes” (Nature Communications, 2022)
